Assay results: patent publication US20180346588A1

Key:
[1] = target: human mesothelin (MSLN) on the cell surface (human) (UniProt Q13421); assay: FACS on MiaPaCa-MSLN #2 cells, upper histogram and table
[2] = target: human mesothelin (MSLN) on the cell surface (human) (UniProt Q13421); assay: FACS on MSLN stable cell line (#2), left panels; sheet note: 1st Ab 1 µg (1st assay), 2nd Ab anti-human Fc antibody FITC
[3] = target: human mesothelin (MSLN) on the cell surface (human) (UniProt Q13421); assay: FACS on MSLN stable cell line (#2), right panels; sheet note: 1st Ab 0.36 µg (2nd assay), 2nd Ab anti-human Fc antibody FITC
[4] = target: human mesothelin (MSLN) on the cell surface (human) (UniProt Q13421); assay: FACS on MiaPaCa-MSLN #2 cells, upper histogram and table; negative control
[5] = target: human mesothelin (MSLN) on the cell surface (human) (UniProt Q13421); assay: FACS on MSLN stable cell line (#2), left panels; negative control; sheet note: 1st Ab 1 µg (1st assay), 2nd Ab anti-human Fc antibody FITC
[6] = target: human mesothelin (MSLN) on the cell surface (human) (UniProt Q13421); assay: FACS on MSLN stable cell line (#2), right panels; negative control; sheet note: 1st Ab 0.36 µg (2nd assay), 2nd Ab anti-human Fc antibody FITC

human mesothelin (MSLN) on the cell surface (human), sequence (Q13421 other isoform, or with tags, fused parts or gaps limits assumed): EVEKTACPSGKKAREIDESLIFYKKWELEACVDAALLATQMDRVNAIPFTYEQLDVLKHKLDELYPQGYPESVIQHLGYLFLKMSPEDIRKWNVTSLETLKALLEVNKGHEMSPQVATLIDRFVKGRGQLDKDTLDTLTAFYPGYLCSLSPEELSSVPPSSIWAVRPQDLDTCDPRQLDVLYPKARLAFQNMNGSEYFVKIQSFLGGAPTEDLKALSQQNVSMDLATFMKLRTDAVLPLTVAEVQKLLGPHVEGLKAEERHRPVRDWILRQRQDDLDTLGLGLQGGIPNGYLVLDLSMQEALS

| Mean, FL2-H [1] | Mean, FL1-H [2] | Mean, FL1-H [3] | Mean, FL2-H [4] | Mean, FL1-H [5] | Mean, FL1-H [6] | Substance |
| --- | --- | --- | --- | --- | --- | --- |
| 3190 | 515 | 263 | – | – | – | Morab (antibody) |
| – | – | – | 8.6 | 3.36 | 4.81 | hIgG (antibody) |
